According to the supplement of paper PMC9732359:
± gives the uncertainty stated by the source.

Assay: protein stability index of a GFP-peptide fusion (yeast GPS) (PSI 1-4); higher = more stable; sorted into four equal gates, so the index is relative within each strain
How it was run: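 Yeast carrying a pooled library were grown to mid-log phase in leucine-free medium. Each library plasmid expresses Cherry and has a tiled 17-residue yeast protein peptide fused downstream of GFP. Cells were sorted into four equal gates by GFP/Cherry ratio, and plasmids from each gate were PCR-amplified, Illumina-sequenced and assigned to strains by barcode. Summing, across gates, the read frequency times the gate number gave each peptide's protein stability index.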

| Sequence | protein stability index (doa10∆) | protein stability index (pdr5∆) | protein stability index (san1∆) | protein stability index (ubr1∆) |
| --- | --- | --- | --- | --- |
| LKSAENSGKQQYYRGLP [SWP82] | 2.25 ± 0.1 | 2.24 ± 0.067 | 2.25 ± 0.21 | 2.75 ± 0.068 |
| SSIHAIGSIKEDYLGAI [RPB7] | 2.61 ± 0.076 | 2.74 ± 0.064 | 2.71 ± 0.067 | 3.01 ± 0.095 |
| MAFNLLGLLTPEVVELC [FAS2] | 1.8 ± 0.085 | 1.56 ± 0.12 | 1.22 ± 0.22 | 2.47 ± 0.12 |
| DIEDALVLNKSSIDRGF [RET1] | 2.37 ± 0.095 | 2.83 ± 0.14 | 2.24 ± 0.19 | 2.97 ± 0.22 |
| DLQKLLKGIQEFGADWY [SWI3] | 3.1 ± 0.062 | 3.07 ± 0.056 | 3.09 ± 0.043 | 3.22 ± 0.053 |
| RYQHLEKITQISLLCKN [PCI8] | 1.23 ± 0.066 | 1.5 ± 0.051 | 1.25 ± 0.11 | 1.22 ± 0.048 |
| TQTGLLQDLEEAKSFQD [RPC82] | 2.27 ± 0.25 | 2.46 ± 0.12 | 2.13 ± 0.14 | 2.59 ± 0.11 |
| SDSEIPPLLVYKWTQGI [PRP8] | 2.3 ± 0.056 | 2.36 ± 0.057 | 2.26 ± 0.068 | 2.07 ± 0.074 |
| NTTLQDNVSFIEEAKSI [REC8] | 3.1 ± 0.084 | 3.22 ± 0.091 | 3.23 ± 0.064 | 3.17 ± 0.066 |
| LDSDSENDLSFALMRYY [RRI2] | 2.8 ± 0.068 | 2.89 ± 0.063 | 2.85 ± 0.057 | 2.91 ± 0.047 |
| LLFPKSTIVNLAREVPQ [DPB4] | 1.77 ± 0.14 | 2.24 ± 0.25 | 1.72 ± 0.18 | 1.94 ± 0.14 |
| YKLSTVVLRLYLKDNIT [GRR1] | 1.64 ± 0.06 | 1.53 ± 0.051 | 1.36 ± 0.081 | 1.68 ± 0.068 |
| SMHLLKDWTDTFVYILE [SRB8] | 3.06 ± 0.057 | 2.95 ± 0.06 | 2.88 ± 0.047 | 2.97 ± 0.059 |
| TAAIDSVVSQIEKGSTF [FAS1] | 3.1 ± 0.097 | 2.95 ± 0.078 | 3.12 ± 0.072 | 2.93 ± 0.057 |
| GISLVMEIVANAKESNY [MED1] | 1.77 ± 0.065 | 1.98 ± 0.069 | 2.28 ± 0.085 | 2.15 ± 0.043 |
| AVNLLNCPHSDSTQLLE [SSN2] | 2.67 ± 0.15 | 3.3 ± 0.092 | 3.51 ± 0.15 | 2.9 ± 0.072 |
| AQAAQAAQAQAQAQAQA [GAL11] | 2.53 ± 0.041 | 2.87 ± 0.046 | 2.71 ± 0.034 | 2.82 ± 0.044 |
| ACGAFININEFALPAGS [CDC53] | 2.36 ± 0.096 | 2.53 ± 0.091 | 1.99 ± 0.12 | 1.87 ± 0.074 |
| ALSKFLTHPKYLNSRII [YML103C/NUP188] | 1.16 ± 0.057 | 1.32 ± 0.077 | 1.38 ± 0.093 | 1.58 ± 0.066 |

| Sequence | protein stability index (doa10∆) | protein stability index (pdr5∆) | protein stability index (san1∆) | protein stability index (ubr1∆) |
| --- | --- | --- | --- | --- |
| SLADNEIALKGLESLLN [YCS4] | 2.81 ± 0.056 | 2.5 ± 0.067 | 2.68 ± 0.075 | 2.94 ± 0.073 |
| DAKKCIAACTGVPDDKW [FAS1] | 2.63 ± 0.092 | 2.35 ± 0.058 | 2.16 ± 0.11 | 2.78 ± 0.071 |
| KIQASDVNIIGKDRIAI [RPO31] | 2.82 ± 0.11 | 3.05 ± 0.098 | 2.87 ± 0.087 | 3.35 ± 0.081 |
| APSIIFMDEIDSIGSTR [RPT6] | 2.76 ± 0.063 | 2.89 ± 0.088 | 2.83 ± 0.058 | 2.93 ± 0.054 |
| YGLFLKYHKEQFIKSNF [SRB8] | 2.15 ± 0.067 | 2.29 ± 0.045 | 1.97 ± 0.069 | 2.36 ± 0.054 |
| RSTRIRTKSQVIEEDYD [IRR1] | 2.89 ± 0.15 | 3.22 ± 0.082 | 3.42 ± 0.078 | 3.43 ± 0.11 |
| LSSVALRSDFYILANHY [YJL039C/NUP192] | 2.06 ± 0.15 | 2.28 ± 0.13 | 1.59 ± 0.24 | 2 ± 0.098 |
| LSRGYTCPGLSLTDVAF [ECM29] | 3.24 ± 0.12 | 3.19 ± 0.084 | 2.29 ± 0.11 | 2.68 ± 0.12 |
| SVIVSQFCAFDSSSNTY [SIN4] | 2.48 ± 0.084 | 2.26 ± 0.073 | 2.51 ± 0.12 | 2.19 ± 0.074 |
| IVHSSDGHLQFLNDVIP [DLS1] | 2.99 ± 0.082 | 2.75 ± 0.077 | 2.6 ± 0.16 | 2.51 ± 0.088 |
| GGVMANRKIARMRHSKR [YOR098C/NUP1] | 3.31 ± 0.13 | 3.6 ± 0.085 | 3.34 ± 0.09 | 3.32 ± 0.1 |
| SRRFKNGFQTGSAKATS [RPL37B] | 3.13 ± 0.078 | 3.12 ± 0.087 | 3.37 ± 0.096 | 3.17 ± 0.059 |
| QIPHFNNKILEKCKEIN [BRR2] | 1.28 ± 0.11 | 2.23 ± 0.12 | 1.88 ± 0.22 | 2.02 ± 0.14 |
| DPKLEKCLNYRNVNWIE [ITC1] | 2.96 ± 0.069 | 2.88 ± 0.09 | 2.96 ± 0.056 | 2.95 ± 0.046 |
| PMIKAEETPSKTNKISI [NUT1] | 2.52 ± 0.057 | 2.8 ± 0.049 | 2.6 ± 0.06 | 2.84 ± 0.051 |
| AKAKAVTSKVRNAEFKV [YMR153W/NUP53] | 1.38 ± 0.15 | 1.67 ± 0.13 |  | 1.3 ± 0.13 |
| MNLKKELQGYIELSVPD [SRB5] | 2.6 ± 0.21 | 3.26 ± 0.14 | 3.15 ± 0.075 | 2.83 ± 0.1 |
| LGSDSSDGHNSEKKDTD [SRB4] | 1.68 ± 0.11 | 2.02 ± 0.2 | 1.59 ± 0.27 |  |
| HPYLFEGAEPGPPYTTD [ISW2] | 3.04 ± 0.06 | 3.14 ± 0.066 | 3.07 ± 0.05 | 3.18 ± 0.053 |
